In the DeepSol protein solubility set:

Test: soluble on expression in E. coli; label from the status in PepcDB or PDB records

| Sequence | soluble on expression in E. coli |
| --- | --- |
| MSLSDDLFAPQVPVEVANRRPLADRLRPKTLSEVSGQPHLTGEEGVLRRMIDSGSLGSMIFWGPPGTGKTTVARLLSGEAGLAFEQISAIFSGVADLKKVFEAARTRRMNGRQTLLFVDEIHRFNRAQQDSFLPVMEDGTIILVGATTENPSFELNAALLSRARVLTFGSHDEDSLSELLKRAEEAEGKPLPLTEEARASLLRMADGDGRAVLTLAEEVWRAARKDETFDTEGLTRIVQRRAPVYDKSQDGHYNLISALHKSVRGSDPDAALYYLARMFDAGEDPLYLGRRLVRMAVEDIGLADPQALAVCNAAKDAYDYLGSPEGELALAQACVYLATAPKSNAVYTAFKAAMRAAKENGSLVPPKHILNAPTKLMKGEGYGDGYRYDHDEPDAFSGQDYFPEKMGRTTFYDPPDRGFEREIRKRLDWWAKLRRERGEGHHHHHH | not soluble |
| MSLSDNRSHIEEKYQWDLTSIFPNDQTWEKEEKSLAKDLEIAVKRAGHLLDSSQSLLEITELYLALSRRLEKLYVYASMKNDQDTTVSYYQELQAKATALIAKFNQTFAFYEPEFMLLSTEKYQDFLADCPDLLPYQHFFEKLFKQKKHVLSQKEEALLAEASEIFGAAGETFEILDNADIIFPWVKDETGEEVELSHGNFISLMESKNRKVRQEAYKAMYSIYEQYQHTYAKTLQTNVKVNNFQAKIRNYKSAREAALAANFIPETVYDTLVEAVHNHLPLLQRYVKLRQNVLGLDDLKMYDIYVPLSEMDMTFTYEAALDKAEEVLAIFGRDYAERVHRAFRERWIDVRVNKGKRSGAYSGGSYDTNAFILLNWQDTLDNLFTLVHETGHSLHSTFTRENQPYVYGDYSIFLAEIASTTNENILTETLLKEATDEKQRFAILNHYLDGFKGTVFRQTQFAEFEDLIYKADQAGDVLTSDYLNNLYADLNEKYYGLSKENNPEIQYEWARIPHFYYNFYVYQYATGFAAASFLAHKIVHGNQEDKDKYLNYLKAGNSDYPLNVIAKAGLDMTESTYLDQAFKVFEERLIELEELVEKGIDEGHHHHHH | soluble |
| MSLSDNVVTSKVGNVTEKELSKELRQQYGESTLYQMMLSKALLDKYKVSDEEAKKKVEEAKDKMGENFKSTLEQLGLKNEDELKEKMKPEIAFEKAIKATVTDKDVKNNYKPEMKVSHILVKDEKTAKEIKEKVNNGEDFAALANQYSEDTGSKEQGGEISGFAPGQTVKEFEEAAYKLDAGQVSDPVKTTYGYHIIKVTDKKELKPFDEVKDKIRKDIEQQRLQDTTGKWKQQVVNDLLKDADIKVNNKEFKDTFKFLEKEGHHHHHH | soluble |
| MSLSDVKVIIMDIDGTLTTSKKIISEKTKKALKKAQELGAVLILASGRPTSGLMDFAKELEMDKNHGLLVSFNGARVVDCETNKILFNETMSIDQGQAVLEHMKKFEVKPMIDKGDYMYVNDVFDNEIQYKGEPFNIIQYESRNNKFKLCEKHDLAAFADYPLNKILTAGEPEYLKKHYKEMMEPFKESLNCMFTADFYFEFTAEGIDKAKALDTVLIPMGYKKEEMIAFGDGHNDISMVKYAGIGVAMDNAVQELKNAADEVTLSNEEDGIAYTLSKYMKGLEGHHHHHH | soluble |
| MSLSEKVTIYDIAEKLNITAATVSRALNNNPKIKESTRELVIKTAASMNYKQNKLALALKSGRSNNIGVIVPRIDSNFFASVIRGIEEELQPHGYQVIICQTHESKQRENENLYTLIDAQVDGILMSVTDVTSENDDAFNNVLQKNVPLIFFDRSKHIDGVSSVTINDFRGGYLTTKHLINEGCRYIAHFSGDQSLEIFKNRFLGYKQALLDHGIEFKEEYVIPVKSMVDAGKEAVDKLLQLETPPDAIFSSSDFAALGAIQELKERNISIPNEFCVAGFSNEPFTKFMELSITSVDQSPLEMGKMAARVFLEQVDKTDTIKIEKKVVLAPELHIRKSSSRTNFEGHHHHHH | soluble |
| MSLSHQQKVYIPKEARTNQYITAEIKVTDELLNQYPDYHSCYQTLSRIIFNLAEQHDLRNVHVITNDKLPVVRYHTEAYCFQTAEQILFFYNPAYHEAQNLFTADNYRARKLRIVFLATGDEIRSNSANFHTRVQEFLNELMPKLPIKDLKVKIRDHQHLSYDLFAKSKGNKETYGYKLRAIAPRYKARKCELPENVSSLTYVTVSLPLSRKLKQGLLPESATDFSPLYQHLEDNFLKAAANKQLTRLAMIANGLTPLVRNSKFEKLDSKAEVQMIGFDPNATEQQVIRRWDADNLVEAAHFTIVAGAKDCDDAGYGRFMNNVEAALKSFAAEIGLDPEREDLVTRFHQHISYQL | soluble |
